T1: carcinoembryonic antigen (UniProt P06731 35-685)
T1 construct: Bought reagent (Biodesign); also called CEA
T1 sequence: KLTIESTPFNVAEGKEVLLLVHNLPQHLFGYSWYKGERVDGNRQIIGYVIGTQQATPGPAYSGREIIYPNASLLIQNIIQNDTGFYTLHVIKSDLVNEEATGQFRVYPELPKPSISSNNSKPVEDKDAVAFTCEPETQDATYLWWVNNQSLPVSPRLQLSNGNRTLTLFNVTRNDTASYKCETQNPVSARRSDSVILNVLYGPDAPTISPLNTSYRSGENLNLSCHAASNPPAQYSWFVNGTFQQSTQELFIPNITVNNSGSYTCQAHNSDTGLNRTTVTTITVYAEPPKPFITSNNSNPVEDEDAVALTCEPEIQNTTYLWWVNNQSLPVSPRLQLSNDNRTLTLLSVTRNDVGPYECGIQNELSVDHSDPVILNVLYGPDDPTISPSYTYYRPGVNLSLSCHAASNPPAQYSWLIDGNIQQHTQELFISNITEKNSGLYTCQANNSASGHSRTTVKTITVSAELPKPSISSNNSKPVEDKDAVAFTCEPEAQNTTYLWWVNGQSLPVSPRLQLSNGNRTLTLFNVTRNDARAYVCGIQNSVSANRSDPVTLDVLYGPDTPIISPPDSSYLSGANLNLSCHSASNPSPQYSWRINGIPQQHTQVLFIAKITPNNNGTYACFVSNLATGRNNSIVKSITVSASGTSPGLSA


These binders were tested against T1, carcinoembryonic antigen (assay: plate assay: CEA coated on wells, culture lysate added, bound fusion read by BLA activity on nitrocefin).

| Binder | binding result |
| --- | --- |
| NA05.9 (scFv, Variant of the CAB1 scFv-BLA fusion, tested as crude lysate; Positions are numbered along the whole CAB1 fusion (pME27)) QVQLQQSGAELVRPGTSVKLSCTASGFNIKDSYMHWVRQGPGQGLEWIGWIDPENGDTEYAPKFQGKATFTTDTSSNTAYLQLSSLTSEDTAVYYCNEGTPTGPYYFDYWGQGTTVTVSSGGGGSGGGGSGGGGSQNVLTQSPAIVSASPGEKVTITCSASSSVSYMHWFQQKPGTSPKLVIYSTSNLASGVPARFSGSGSGTSYSLTISRMEAEDAATYYCQQRSSYPLTFGGGTKLELKRAATLVSEKQLAEVVANTITPLMKAQSVPGMAVAVIYQGKPHYYTFGKADIAANKPVTPQTLFELGSISKTFTGVLGGDAIARGEISLDDAVTRYWPQLTGKQWQGIRMLDLATYTAGGLPLQVPDEVTDNASLLRFYQNWQPQWKPGTTRLYANASIGLFGALAVKPSGMPYEQAMTTRVLKPLKLDHTWINVPKAEEAHYAWGYRDGKAVRVSPGMLDAQAYGVKTNVQDMANWVMANMAPENVADASLKQGIALAQSRYWRIGSMYQGLGWEMLNWPVEANTVVETSFGNVALAPLPVAEVNPPAPPVKASWVHKTGSTGGFGSYVAFIPEKQIGIVMLANTSYPNPARVEAAYHILEALQ | binds |
| NA05.15 (scFv, Variant of the CAB1 scFv-BLA fusion, tested as crude lysate; Positions are numbered along the whole CAB1 fusion (pME27)) QVKLQQSGAELVRSGTSVKLSCTASGFNIKDSYMHWLRQGPEQGLEWIGWIDPENGDTEYAPKFQGKATFTTDTSSNTAYLQLSSLTSEDTAVYYCNEGTPTGPYYFDYWGQGTTVTVSSGGGGSGGGGSGGGGSENVLTQSPAIVSASPGEKVTITCSASSSVSYMHWYQQKPGTSPKLWIYSTSNLASGVPDRFSGSGSGTSYSLTISRMEAEDAATYYCQQRSSYPLTFGAGTKLELKRAATLVSEKQLAEVVANTITPLMKAQSVPGMAVAVIYQGKPHYYTFGKADIAANKPVTPQTLFELGSISKTFTGVLGGDAIARGEISLDDAVTRYWPQLTGKQWQGIRMLDLATYTAGGLPLQVPDEVTDNASLLRFYQNWQPQWKPGTTRLYANASIGLFGALAVKPSGMPYEQAMTTRVLKPLKLDHTWINVPKAEEAHYAWGYRDGKAVRVSPGMLDAQAYGVKTNVQDMANWVMANMAPENVADASLKQGIALAQSRYWRIGSMYQGLGWEMLNWPVEANTVVETSFGNVALAPLPVAEVNPPAPPVKASWVHKTGSTGGFGSYVAFIPEKQIGIVMLANTSYPNPARVEAAYHILEALQ | binds |
| NA05.12 (scFv, Variant of the CAB1 scFv-BLA fusion, tested as crude lysate; Positions are numbered along the whole CAB1 fusion (pME27)) QVQLQQSGAELVRPGTSVKLSCTASGFNIKDSYMHWVRQGPEQGLEWIGWIDPENGDTEYAPKFQGKATFTTDTSSNTAYLQLSSLTSEDTAVYYCNEGTPTGPYYFDYWGQGTTVTVSSGGGGSGGGGSGGGGSENVLTQSPAIVSASPGEKVTITCSASSSVSYMHWFQQKPGTSPKLWIYSTSNLASGVPARFSGSGSGTSYSLTISRMEAEDAATYYCQQRSSYPLTFGAGTKLELKRAATLVSEKQLAEVVANTITPLMKAQSVPGMAVAVIYQGKPHYYTFGKADIAANKPVTPQTLFELGSISKTFTGVLGGDAIARGEISLDDAVTRYWPQLTGKQWQGIRMLDLATYTAGGLPLQVPDEVTDNASLLRFYQNWQPQWKPGTTRLYANASIGLFGALAVKPSGMPYEQAMTTRVLKPLKLDHTWINVPKAEEAHYAWGYRDGKAVRVSPGMLDAQAYGVKTNVQDMANWVMANMAPENVADASLKQGIALAQSRYWRIGSMYQGLGWEMLNWPVEANTVVETSFGNVALAPLPVAEVNPPAPPVKASWVHKTGSTGGFGSYVAFIPEKQIGIVMLANTSYPNPARVEAAYHILEALQ | binds |

— US20050084868A1 (published 2005)
